Test results: the supplement of paper PMC10567573

B1: FAM9B (parent)
chain: EDLTAKRKRMKMDKTCSKTKNKSK
B2: CDC34 (parent)
chain: GGYFKARLKFPIDYPYSPPAFRFL

Variants of: B1
Assay: protein stability index of a GFP-peptide fusion (GPS, HEK-293T) (PSI 1-6); higher = more stable
Conditions: c terminus: a fixed tail appended
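Further: lentivirally expressed fusions sorted by FACS into six bins by GFP to DsRed ratio, PSI derived from sequencing read proportions per bin multiplied by bin number.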

Protein stability index of substitutions, site by site:
C16: G 4.11 | D 5.67 | S 5.33 | T 5.63 | L 5.05 | Y 5.54 | E 5.47 | N 5.46 | P 5.57 | M 5.27 | R 5.47 | A 4.69 | H 4.66 | K 4.96 | I 4.71
K20: D 4.9 | H 5.24 | E 5.07 | C 4.57 | A 4.94 | Q 5.15 | Y 4.43 | F 4.46 | T 5.25 | I 4.75
R9: W 4.48 | C 5.05 | H 4.49 | N 5.38 | P 4.4 | A 5.33 | L 4.04 | M 5.07 | I 4.08 | Y 5.29
E1: M 4.15 | L 4.38 | V 4.96 | K 4.89 | Y 3.72 | I 4.08 | N 5.29 | T 4.91 | A 4.77 | Q 4.99 | W 3.89 | G 4.86 | S 5.16
M12: L 4.79 | Q 5.03 | R 4.72 | E 5.78 | N 4.67 | H 5.44 | G 5.76 | F 4.95 | W 3.86 | S 5.9 | P 5.61 | T 5.54 | Y 5.16
K14: N 5.51 | M 5.45 | I 3.76 | H 5.36 | W 4.73 | F 4.48 | Y 5.22 | G 5.19 | S 5.03 | Q 4.99 | L 4.83 | D 5.14
N21: Q 5.51 | L 4.93 | H 5 | I 4.7 | C 4.95 | G 4.78 | M 4.81 | K 5.33 | R 5.25 | S 5.46 | A 5.23 | Y 4.77 | V 4.11 | E 5.44
S23: I 4.78 | D 5.36 | L 4.76 | E 5.52 | R 5.24 | N 5.12 | C 5.32 | H 4.53 | K 5.06 | W 4.47 | Q 5.1 | G 5.07 | F 4.6
M10: I 5.18 | G 4.71 | F 4.88 | C 5.02 | P 4.75 | L 5.34 | W 4.96 | V 5.12 | K 5.31 | T 5.35 | S 5.43 | H 5.43 | Q 5.28
D13: L 4.77 | C 4.33 | E 5.57 | G 5.48 | I 4.89 | Q 5.41 | H 4.64 | R 4.49 | K 4.7 | M 3.91 | T 5.01
A5: L 5.37 | G 5.47 | P 4.92 | C 4.05 | H 5.05 | T 4.51 | R 5.23 | M 5.2
K8: I 4.4 | T 4.97 | A 4.94 | P 5.5 | D 5.29 | W 4.77 | H 4.97 | E 4.99 | F 4.58 | R 5.15 | S 5.39 | V 5.13
T19: C 4.99 | K 5.17 | R 5.26 | L 4.94 | V 4.7 | Y 4.75 | Q 5.08 | N 5.1 | M 5.15 | G 4.94 | E 5.74 | P 4.89 | I 4.9 | W 4.58
K6: M 4.67 | L 4.85 | R 5.33 | H 5.37 | W 4.29 | I 5.1 | Y 5.19 | F 4.42 | A 4.87 | Q 5.12 | N 4.85
K22: W 4.19 | A 5.4 | I 3.59 | F 4.63 | T 5.11 | E 4.96 | R 5.31 | Y 5.07 | C 4.92
D2: W 3.49 | E 5.3 | H 5.01 | G 5.21 | V 4.86 | R 4.43 | T 4.92 | L 4.08 | S 4.63 | C 4.11 | Q 5.04 | Y 3.69
L3: E 5.77 | M 5.13 | P 5.39 | S 4.99 | Q 5.51 | F 4.98 | W 4.6 | Y 5.23 | K 5.4 | V 5.63 | T 5.33 | N 5.15
K11: R 4.97 | M 4.21 | Y 4.26 | G 5.19 | P 5.16 | D 5.22 | I 4.47 | L 4.62 | N 4.45 | C 4.9
T15: L 5.07 | G 4.55 | D 4.91 | F 4.8 | P 5 | R 4.88 | S 4.24 | N 5.33 | I 5.12 | A 5 | M 5.11
T4: H 5.29 | W 4.38 | M 4.45 | E 5 | A 5.25 | K 5.54 | C 4.52 | R 4.64 | F 4.72 | N 4.8 | I 4.58 | L 4.6
S17: W 5.02 | P 4.93 | T 5.32 | C 5.05 | V 4.88 | Q 5.34 | E 5.73 | I 5.21 | M 5.39
R7: Y 5.11 | V 4.87 | M 4.75 | G 5.54 | H 4.95 | S 5.3 | A 5.09 | W 4.33 | K 5.16 | L 4.87 | F 4.69
K24: N 5 | P 4.93 | C 5.2 | M 4.96 | G 4.19 | W 3.98 | A 5.14 | L 4.01 | T 5.15 | R 5.06 | Q 4.59 | F 4.83 | S 4.43 | D 4.97
K18: Q 5.57 | S 4.78 | E 5.6 | P 5.87 | C 4.96 | F 3.92 | W 4.35 | V 4.75 | M 4.67 | G 4.83 | I 4.9

Variants of: B2
Assay: as above
Conditions: c terminus: a fixed tail appended

Protein stability index, by site and new letter:
R22: S 2.8 | T 2.52 | A 4.99 | C 4.57 | Q 2.65 | E 2.58 | I 2.74 | Y 2.7 | D 3.74 | V 4.1 | H 2.87 | G 2.78 | M 3 | P 2.62 | L 2.97 | N 2.73 | F 3.63 | K 2.74
F21: W 3.02 | T 2.67 | V 3.33 | Y 1.53
L24: M 2.76 | T 3.35 | E 1.76 | Y 2.4 | D 2.33 | N 3.21 | V 3.43 | G 2.44 | A 3.55 | Q 2.95 | W 2.05 | R 3.94 | K 3.77 | F 2.89
F23: T 2.74 | A 2.82 | G 1.09 | Y 1.26 | K 2.8 | R 2.42 | S 2.95 | H 4.27 | L 1.54 | V 3.6 | D 2.71 | N 2.95 | P 3.15 | I 2.08 | M 2.48 | E 2.19 | Q 1.48 | W 1.43
